Results on 1 molecule are retold here after patent US20230174659A1 (GENERAL HOSPITAL, published 2023).

Test [1] addresses T1, Amino acid residues 98-117 of human TNFR2 (human).
T1 sequence (peptide): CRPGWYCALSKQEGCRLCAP
Kind of test: ELISA on plate-coated linear peptide S04072; Affinity cell of this row is '1+'. On the technique in general: ELISA stands for enzyme-linked immunosorbent assay.

Test [2] has as its target T2, Amino acid residues 34-53 of human TNFR2 (human).
T2 sequence (peptide): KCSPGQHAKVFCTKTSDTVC
Kind of test: ELISA on TNFR2 peptide, antibody alone.

Test [3] addresses T1, Amino acid residues 98-117 of human TNFR2 (human). Kind of test: ELISA on TNFR2 peptide, antibody alone.
Test [4] addresses T3, Amino acid residues 26-45 of human TNFR2 (human).
T3 sequence (peptide): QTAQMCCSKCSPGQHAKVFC
Kind of test: ELISA on TNFR2 peptide, antibody alone.

The target of test [5] is T1, Amino acid residues 98-117 of human TNFR2 (human). Kind of test: ELISA on plate-coated linear peptide S04072.

B1: agonistic TNFR2 antibody TNFRAG1 (antibody, V domains shown)
VH: EVQLQQFGAELVKPGASVKISCKASGYTFTDYNIDWVKQSHGKSLEWIGDINPNYDSTSYSQKFRGKATLTVDKSSSTAYMELRSLTSEDTAVYYCARGNSWYFDVWGAGTTVTVSS
VL: QIVLTQSPALMSASPGEKVTMTCSASSSVRYMYWYQQKPRSSPKPWIYLTSNLASGVPARFSGSGSGTSYSLTISSMEAEDAATYYCQQWSSNPLTFGAGTKLELK
notes: It was detected with secondary antibodies against rodent IgG; also called monoclonal TNFR2 antibody TNFRAG1; TNFR2 agonist antibody
In the case of B1, the Reading worked out at 0 in test [1], 2 in test [3] and 0.1 in test [4]. For the same molecule, the Affinity in test [2], in test [3], in test [4] and in test [5] was 1 throughout.
